Measurements as given in PMC3233575.

Key:
[1] = target: soluble recombinant DC-SIGN, entire extracellular domain (residues 70-404) (UniProt Q9NNX6); assay: acoustic biosensor (RapID4); soluble DC-SIGN amine-coupled, BSA on the control cell; purified or unpurified inactivated virus 34-250 nM (by p24, 2500 gag per virion); Langmuir kinetic model
[2] = target: HIV-1 IIIB gp140 (soluble, trimeric ectodomain of the envelope glycoprotein, residues 31-665) (HIV-1 strain IIIB (clade B, X4), molecular clone pBH10) (UniProt P03375); assay: SPR; gp140 immobilised by direct amine coupling on CM5 (560 RU BX08, 620 RU IIIB); fluid phase DC-SIGN 50-600 nM or Langerin 25-200 nM; HBS-P pH 7.4 with 10 mM CaCl2; heterogeneous analyte model (KD2 oligomer, KD1 monomer)
[3] = target: HIV-1 BX08 gp140 (soluble, trimeric ectodomain of the envelope glycoprotein, residues 31-663) (HIV-1 strain 92FR_BX08 (clade B, R5)); assay: as above
[4] = target: CHO-expressed soluble CD4 (UniProt P01730)
[5] = target: HIV-1 IIIB virus particles (envelope glycoprotein on virions) (HIV-1 strain IIIB (clade B)) (UniProt P03375)
[6] = target: HIV-1 BX08 gp140 (soluble, trimeric ectodomain of the envelope glycoprotein, residues 31-663) (HIV-1 strain 92FR_BX08 (clade B, R5))

Chain of soluble recombinant DC-SIGN, entire extracellular domain (residues 70-404) (from UniProt Q9NNX6-1 70-404) (domain or fragment) (Q9NNX6 70-404): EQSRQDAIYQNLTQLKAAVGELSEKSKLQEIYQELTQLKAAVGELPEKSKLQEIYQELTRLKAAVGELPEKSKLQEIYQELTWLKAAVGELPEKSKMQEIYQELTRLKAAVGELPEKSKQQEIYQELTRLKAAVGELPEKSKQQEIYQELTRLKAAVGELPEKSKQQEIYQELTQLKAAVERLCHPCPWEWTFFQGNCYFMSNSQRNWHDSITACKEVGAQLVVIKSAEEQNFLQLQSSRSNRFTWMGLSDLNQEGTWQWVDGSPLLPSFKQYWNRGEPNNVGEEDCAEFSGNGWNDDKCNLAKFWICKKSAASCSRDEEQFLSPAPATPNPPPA
Chain of soluble recombinant DC-SIGN, entire extracellular domain (residues 70-404) (UniProt Q9NNX6) (Q9NNX6 70-404): as above
Chain of soluble recombinant Langerin, full extracellular domain (residues 56-328) (Q9UJ71 56-328): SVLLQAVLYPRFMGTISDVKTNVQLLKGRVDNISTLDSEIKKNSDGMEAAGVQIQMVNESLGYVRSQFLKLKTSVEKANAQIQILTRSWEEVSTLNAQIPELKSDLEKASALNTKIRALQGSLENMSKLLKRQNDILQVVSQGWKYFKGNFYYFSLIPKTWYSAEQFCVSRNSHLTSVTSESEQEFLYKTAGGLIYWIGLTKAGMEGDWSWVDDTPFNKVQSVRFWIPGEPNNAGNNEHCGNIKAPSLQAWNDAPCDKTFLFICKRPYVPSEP

“HIV-1 IIIBx virus particles (envelope glycoprotein on virions), CD4-independent variant of IIIB (from UniProt P03375 33-511; P03375 512-856) (complex)” showed a Kd [1] of 20 nM.
Substance “soluble recombinant Langerin, full extracellular domain (residues 56-328) (from UniProt Q9UJ71 56-328) (domain or fragment)” has a KD2 (trimeric form, heterogeneous analyte model) [2] of 0.011 µM and a KD2 (trimeric form, heterogeneous analyte model) [3] of 0.024 µM.
Work on “HIV-1 BX08 gp140 (soluble, trimeric ectodomain of the envelope glycoprotein, residues 31-663) (domain or fragment)” yielded a maximum enhancement of p24 release from PM1 cells infected with HIV-1 BX08 pre-incubated with soluble DC-SIGN at <1 nM, against no treatment [4] of 3.6 fold.
With “HIV-1 IIIB virus particles (envelope glycoprotein on virions) (from UniProt P03375 33-511; P03375 512-856) (complex)” the Kd [1] was 96 nM and the maximum enhancement of p24 release from PM1 cells infected with HIV-1 IIIB pre-incubated with soluble DC-SIGN at <1 nM, against no treatment [4] was 15.3 fold.
Substance “soluble recombinant DC-SIGN, entire extracellular domain (residues 70-404) (from UniProt Q9NNX6-1 70-404) (domain or fragment)” has a KD2 (tetrameric form, heterogeneous analyte model) [2] of 0.063 µM, a KD2 (tetrameric form, heterogeneous analyte model) [3] of 0.062 µM and an IC50 of soluble DC-SIGN for inhibition of HIV-1 IIIB replication in PM1 cells (p24 release, 10 days); pair said to be blocked: envelope protein with CD4 [5] of 4 nM. The IC50 of soluble DC-SIGN for inhibition of HIV-1 BX08 replication in PM1 cells (p24 release, 10 days); pair said to be blocked: envelope protein with CD4 [6] was 2.5 nM.
